Experimental findings from paper PMC10397247 are described below.

One test has as its target T1, 4H949-bH.
T1 chain: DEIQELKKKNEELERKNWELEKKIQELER
The experiment in a line: two-hybrid library CCNG1.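 Further: natural log of median RNA to DNA barcode read ratio; higher means stronger binding.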

Another test addresses T2, 4H380-AA.
T2 chain: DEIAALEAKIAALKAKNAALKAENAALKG
Description: two-hybrid library CCmax.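 Further: natural log of median RNA to DNA barcode read ratio; higher means stronger binding.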 To be noted: mean of both orientations.

A further test deals with T3, 4H3619-AA.
T3 chain: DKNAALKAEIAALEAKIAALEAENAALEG
The experiment in a line: two-hybrid library CCmax.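 Further: natural log of median RNA to DNA barcode read ratio; higher means stronger binding.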

The target of the next test is T4, 4H3777-AA.
T4 chain: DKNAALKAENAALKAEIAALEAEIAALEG
The experiment in a line: two-hybrid library CCmax.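 Further: natural log of median RNA to DNA barcode read ratio; higher means stronger binding.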 To be noted: mean of both orientations.

A further test deals with T5, 4H3974-AA.
T5 chain: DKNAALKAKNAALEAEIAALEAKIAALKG
The experiment in a line: two-hybrid library CCmax. To be noted: mean of both orientations.

The target of the next test is T6, 4H432-AA.
T6 chain: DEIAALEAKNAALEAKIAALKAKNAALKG
Description: two-hybrid library CCmax. To be noted: mean of both orientations.

The target of the next test is T7, 4H3629-AA.
T7 chain: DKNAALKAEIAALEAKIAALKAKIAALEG
The experiment in a line: two-hybrid library CCmax. To be noted: mean of both orientations.

The target in a further test is T8, 4H446-AA.
T8 chain: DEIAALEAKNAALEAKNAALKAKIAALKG
Description: two-hybrid library CCmax. The note with it: mean of both orientations.

The target of another test is T9, 4H63-AA.
T9 chain: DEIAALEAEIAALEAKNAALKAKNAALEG
Description: two-hybrid library CCmax. The note with it: mean of both orientations.

A further test addresses T10, 4H3915-AA.
T10 chain: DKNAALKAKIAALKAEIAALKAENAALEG
The experiment in a line: two-hybrid library CCmax. To be noted: mean of both orientations.

Another test deals with T11, 4H754-bH.
T11 chain: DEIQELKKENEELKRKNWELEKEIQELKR
The experiment in a line: two-hybrid library CCNG1.

The target in another test is T12, 4H717-bH.
T12 chain: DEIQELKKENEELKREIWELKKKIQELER
The experiment in a line: two-hybrid library CCNG1.

The target of the next test is T13, 4H967-bH.
T13 chain: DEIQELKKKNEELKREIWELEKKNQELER
The experiment in a line: two-hybrid library CCNG1.

Another test concerns the target T14, 4H72-bH.
T14 chain: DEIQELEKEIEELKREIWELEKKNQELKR
Description: two-hybrid library CCNG1.

The target of another test is T15, 4H918-bH.
T15 chain: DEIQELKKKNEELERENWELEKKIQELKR
The experiment in a line: two-hybrid library CCNG1.

For the next test, the target named is T16, 4H687-bH.
T16 chain: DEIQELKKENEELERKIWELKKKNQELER
Description: two-hybrid library CCNG1.

For a further test, the target named is T17, 4H607-bH.
T17 chain: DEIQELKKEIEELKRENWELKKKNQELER
The experiment in a line: two-hybrid library CCNG1.

In another test the target is T18, 4H883-bH.
T18 chain: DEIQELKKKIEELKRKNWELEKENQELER
The experiment in a line: two-hybrid library CCNG1.

The next test deals with T19, 4H797-bH.
T19 chain: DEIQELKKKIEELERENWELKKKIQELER
The experiment in a line: two-hybrid library CCNG1.

The next test addresses T20, 4H908-bH.
T20 chain: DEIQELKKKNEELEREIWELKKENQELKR
Description: two-hybrid library CCNG1.

The next test addresses T21, 4H568-bH.
T21 chain: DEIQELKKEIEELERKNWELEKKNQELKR
Description: two-hybrid library CCNG1.

A further test deals with T22, 4H953-bH.
T22 chain: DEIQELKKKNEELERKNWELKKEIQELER
The experiment in a line: two-hybrid library CCNG1.

In the case of DEIQELKKKNEELERKNWELEKKIQELER [4H949-bH], the interaction score with 4H949-bH came to 0.634.

Take DKNAALKAEIAALEAKIAALEAENAALEG [4H3619-AA]: the interaction score with 4H380-AA was -0.137; with 4H3619-AA it was -1.28; with 4H3777-AA it was -1.36; with 4H3974-AA it was -0.337; with 4H432-AA it was -0.708; with 4H3629-AA it was 0.411. Moreover, the interaction score was -1.21 with 4H446-AA, -0.357 in the test with 4H63-AA and -0.429 with 4H3915-AA.

As to DEIQELKKEIEELERKNWELEKKNQELKR [4H568-bH], the interaction score with 4H754-bH is 0.644; in the test with 4H717-bH, 0.643; with 4H967-bH, 0.179; with 4H72-bH, -1.52; with 4H918-bH, -0.673; with 4H687-bH, -0.423. The interaction score with 4H607-bH is 0.0933; with 4H883-bH it was 1; in the test with 4H797-bH, -0.219; with 4H908-bH it was 0.115; in the test with 4H568-bH it was -1.25; with 4H953-bH, -1.24.
